These results are taken from PMC8096331, “Completion of the gut microbial epi-bile acid pathway” (Gut Microbes, 2021).

The target in data set [1] is Clostridium paraputrificum ATCC 25780 bile acid 12β-HSDH (WP_027099077.1) (Clostridium paraputrificum ATCC 25780). Put plainly: SEC; Superose 6 10/300 GL analytical column, 4°C, 50 mM Tris-Cl, 150 mM NaCl, pH 7.5; purified protein loaded at 10 mg/mL, 0.3 ml/min; native mass estimated against Bio-Rad gel filtration standards.
Substrate in data set [2]: NC(=O)C1=CN([C@@H]2O[C@H](COP(=O)(O)OP(=O)(O)OC[C@H]3O[C@@H](n4cnc5c(N)ncnc54)[C@H](OP(=O)(O)O)[C@@H]3O)[C@@H](O)[C@H]2O)C=CC1
Briefly: purified protein. The following applies: reductive direction, 80 µM 12-oxoLCA, 10 nM enzyme, sodium phosphate pH 7.0, varied: cofactor.

Substrate in data set [3]: [H][C@]12CC[C@]3([H])[C@]([H])(CC(=O)[C@@]4(C)[C@@]3([H])CC[C@]4([H])[C@H](C)CCC(=O)O)[C@@]1(C)CC[C@@H](O)C2
Briefly: purified protein. It is filed as biochemical, Clostridium paraputrificum. The settings on record: reductive direction; 150 µM NADPH; 10 nM enzyme; sodium phosphate pH 7.0; pH 7.0.

Substrate in data set [4]: C[C@H](CCC(=O)O)[C@H]1CC[C@H]2[C@@H]3CC[C@@H]4C[C@H](O)CC[C@]4(C)[C@H]3C[C@@H](O)[C@]12C
Briefly: purified protein. It is filed as biochemical, Clostridium paraputrificum. The following applies: oxidative direction; 300 µM NADP+; 10 nM enzyme; sodium phosphate pH 7.5; pH 7.5.

Substrate in data set [5]: NC(=O)c1ccc[n+]([C@@H]2O[C@H](COP(=O)(O)OP(=O)(O)OC[C@H]3O[C@@H](n4cnc5c(N)ncnc54)[C@H](OP(=O)(O)O)[C@@H]3O)[C@@H](O)[C@H]2O)c1
Put plainly: purified protein. The following applies: oxidative direction; 100 µM epiDCA; 10 nM enzyme; sodium phosphate pH 7.5; pH 7.5; varied: cofactor. It counts as biochemical, Clostridium paraputrificum.

“Clostridium paraputrificum ATCC 25780 bile acid 12β-HSDH (WP_027099077.1) (enzyme)”: the stoichiometry N (as a rule, a count of units in the complex or per binding partner) in data set [1] is 2.

B1: Cp12β-HSDH (Clostridium paraputrificum) (protein)
chain: MKELNEKVAIITGAGQGIGKGIALHLGKRGVKVVCVGRRLDPIVQTVKEVEEAGGQGFAITCDVGNREDVKKVVKATVEKYGTVDVVVNNAQSLPGSAKVEDTTYEQMLTAWQSGTIGSLNMMQECFPYMKDQNEGRIINFASATGMFGYAGQLAYGCNKESIRGLTKIAAKEWAQYNIIVNCVLPGAESPAAKVWAEKFPEKYKEIMEAQPMKRFGDGEDDIGRVIAFLAGPDSKYYTGQCLLVDGGYSIAP
notes: full length, N-terminal His6 tag (pET-28a(+)), E. coli BL21-CodonPlus(DE3) RIPL, TALON purified
In the case of B1, in the data set “purified protein [2]”, the Michaelis-Menten constant (Km) (usually the concentration of substrate that gives half-maximal velocity) is 29.16 ± 0.42 µM; the Vmax (commonly the rate approached at saturating substrate) amounted to 61.8 µmol/min/mg; the turnover number (kcat) (usually the number of substrate molecules converted per active site and unit of time at saturation) amounted to 28.1 s⁻¹; the kcat/Km (as a rule, the second-order rate constant that governs catalysis at low substrate concentration) is 970000 M⁻¹ s⁻¹. Also, in “purified protein [3]”, the Km stood at 18.76 ± 0.40 µM, the Vmax turned out to be 58.4 µmol/min/mg, the catalytic constant (kcat) came to 26.6 ± 1.62 s⁻¹ and the kcat/Km was found to be 1.42e+06 ± 110000 M⁻¹ s⁻¹. In “purified protein [4]”, the Km is reported as 44.43 ± 1.13 µM, the Vmax came to 130 µmol/min/mg, the catalytic constant (kcat) stood at 59.3 ± 5.47 s⁻¹ and the kcat/Km came out at 1.34e+06 ± 150000 M⁻¹ s⁻¹. In the data set “purified protein [5]”, the Michaelis constant (Km) stood at 36.84 ± 0.55 µM, the maximum rate (Vmax) was 97.9 µmol/min/mg, the turnover number (kcat) is 44.6 ± 3.77 s⁻¹ and the catalytic efficiency (kcat/Km) amounted to 1.21e+06 ± 120000 M⁻¹ s⁻¹.
